Values quoted from earlier work, collected in patent US20190382746.

Assays:
[1] = test system: PP7 coat protein (Pseudomonas phage PP7); settings: CITED? source not stated; cited from earlier work
[2] = test system: RSG1.2 peptide (synthetic); settings: CITED? source not stated; cited from earlier work

Question: With PP7 aptamer (25 nt) as the substance, how does the Kd [1] read?
Answer: 2 nM

Question: Which Kd [2] does the source give for RSG1.2 aptamer (HIV RRE, 34 nt) here?
Answer: 6 nM
